Assay results taken from paper PMC6710073 (Nature chemical biology, 2019).
Where two headings read alike, the source gives them in different places. Non-standard residues stand in square brackets, D forms with d. No end group written: not given here. Cba = N[C@@H](CC1CCC1)C(=O)O

Assays:
Test in all cases: BLI
[1] = target: T1, SUMO-25–109MDM2 (UniProt Q00987 25-109)
[2] = target: T1, SUMO-25–109MDM2; remark: listed apart in the source
[3] = target: T1, SUMO-25–109MDM2; remark: listed apart in the source

## LTFEHYWAQFTSK (also: biotinylated, position not given here) [compound 6]
[1]
  binding result: binds

## GSGSGSGSGSGSSQETFSDLWKLLPEN (not fully specified; D-biotin on its N terminus) [biotinylated 118: modified 15–29 p53 peptide with an N-terminal Gly-Ser linker]
[2]
  binding result: binds

## LTFEHY[hexylalanine]AQ[Cba]TSK [compound 37]
[3]
  Kd: 0.5 nM
